From PMC3707907, “TdIF1 Recognizes a Specific DNA Sequence through Its Helix-Turn-Helix and AT-Hook Motifs to Regulate Gene Transcription”

Assays:
TdIF1 (His-tagged) [1] = biological target: T1, TdIF1 (His-tagged) (UniProt Q9H147 1-329); test: EMSA; EMSA: 10 mM Tris-HCl pH 7.5, 100 mM NaCl, 1 mM EDTA, 1 mM DTT, 5% glycerol, 5 pmol probe, 100 ng protein in 10 ul, temperature not stated; GST pull-out: elution in 50 mM Tris-HCl pH 7.4, 5 mM beta-mercaptoethanol, 0.25% Tween 20, 10% glycerol, 150-350 mM NaCl; settings: protein: recombinant; tags: His; chain copies: 2; label: biotin
T1 sequence: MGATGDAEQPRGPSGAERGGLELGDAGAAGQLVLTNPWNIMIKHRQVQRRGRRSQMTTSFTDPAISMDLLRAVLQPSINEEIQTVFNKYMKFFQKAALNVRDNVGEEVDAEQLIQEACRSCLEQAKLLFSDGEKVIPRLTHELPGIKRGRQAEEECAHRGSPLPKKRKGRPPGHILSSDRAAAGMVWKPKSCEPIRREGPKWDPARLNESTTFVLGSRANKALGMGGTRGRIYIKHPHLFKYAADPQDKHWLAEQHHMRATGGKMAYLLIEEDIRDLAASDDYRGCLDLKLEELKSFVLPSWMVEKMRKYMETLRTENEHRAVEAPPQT

TdIF1 (His-tagged) [2] = biological target: T1, TdIF1 (His-tagged); test: competition; EMSA vs biotin-dsAT; 5, 15, 45 pmol; slightly weaker than competitor I; EMSA: 10 mM Tris-HCl pH 7.5, 100 mM NaCl, 1 mM EDTA, 1 mM DTT, 5% glycerol, 5 pmol probe, 100 ng protein in 10 ul, temperature not stated; GST pull-out: elution in 50 mM Tris-HCl pH 7.4, 5 mM beta-mercaptoethanol, 0.25% Tween 20, 10% glycerol, 150-350 mM NaCl; settings: protein: recombinant; tags: His; chain copies: 2
TdIF1 (His-tagged) [3] = biological target: T1, TdIF1 (His-tagged); test: competition; EMSA vs biotin-dsAT; 5, 15, 45 pmol; complex decreased; EMSA: 10 mM Tris-HCl pH 7.5, 100 mM NaCl, 1 mM EDTA, 1 mM DTT, 5% glycerol, 5 pmol probe, 100 ng protein in 10 ul, temperature not stated; GST pull-out: elution in 50 mM Tris-HCl pH 7.4, 5 mM beta-mercaptoethanol, 0.25% Tween 20, 10% glycerol, 150-350 mM NaCl; settings: protein: recombinant; tags: His; chain copies: 2

B1: biotin-dsAT probe (32-bp AT-rich dsDNA) (dsDNA)
DNA 1: CGGTATTAAAAATTACTGACAATATTAAATTAGATC
DNA 2: TAATTTAATATTGTCAGTAATTTTTAATACCG
- binding result (TdIF1 (His-tagged) [1]): binds

B2: Competitor III (GNTGCATG only, AT-tract mutated) (dsDNA)
DNA 1: CGCCAAGCCTCAGTTGCATGGTCG
DNA 2: CGACCATGCAACTGAGGCTTGGCG
- binding result (TdIF1 (His-tagged) [2]): binds

B3: Competitor I (SELEX clone 10; AT-tract + GNTGCATG) (dsDNA)
DNA 1: CGCCAAATAAAAGTTGCATGGTCG
DNA 2: CGACCATGCAACTTTTATTTGGCG
- binding result (TdIF1 (His-tagged) [3]): binds
